# According to US9988429B2, “Glucagon analogues” (Zealand Pharma A/S, priority 2013, dated 2018):
# Starred links: 1 amine or outer side, 2 acyl side, 3 side chain; linkers in the order of their positions; H or OH if unused. Non-standard residues stand in square brackets, D forms with d. Residues, ends and D or L forms follow the SMILES beside them. Groups on a side chain read outwards from the residue. *: point of attachment. γGlu = O=C(O)[C@H](CCC(=O)[*:2])N[*:1]; Palmitoyl = CCCCCCCCCCCCCCCC(=O)*; Ac4c = NC1(C(=O)O)CCC1; Ac3c = NC1(C(=O)O)CC1
# T1: endogenous GLP-1 receptor of a murine insulinoma cell line (murine, UniProt O35659 22-463)
# T1 sequence (looked up): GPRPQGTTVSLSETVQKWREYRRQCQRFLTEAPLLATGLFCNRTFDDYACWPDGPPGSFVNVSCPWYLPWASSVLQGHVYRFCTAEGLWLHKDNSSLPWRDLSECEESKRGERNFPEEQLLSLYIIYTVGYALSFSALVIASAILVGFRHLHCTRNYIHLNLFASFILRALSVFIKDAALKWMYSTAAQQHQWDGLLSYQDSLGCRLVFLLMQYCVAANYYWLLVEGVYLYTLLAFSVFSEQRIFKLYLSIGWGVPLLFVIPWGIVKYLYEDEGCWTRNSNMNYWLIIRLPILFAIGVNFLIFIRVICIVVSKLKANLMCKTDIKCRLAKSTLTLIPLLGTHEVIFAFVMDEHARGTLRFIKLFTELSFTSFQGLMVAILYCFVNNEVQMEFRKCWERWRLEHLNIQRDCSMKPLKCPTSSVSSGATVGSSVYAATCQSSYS
# B1: Compound 3: H-H-Ac3c-QGTFTSDYSKYLDS-K(Hexadecanoyl-isoGlu)-AAHDFVEWLLSA-NH2 (peptide)
# peptide: H-H[Ac3c]QGTFTSDYSKYLDSK([γGlu-Palmitoyl])AAHDFVEWLLSA-NH2
# SMILES: CCCCCCCCCCCCCCCC(=O)N[C@@H](CCC(=O)NCCCC[C@H](NC(=O)[C@H](CO)NC(=O)[C@H](CC(=O)O)NC(=O)[C@H](CC(C)C)NC(=O)[C@H](Cc1ccc(O)cc1)NC(=O)[C@H](CCCCN)NC(=O)[C@H](CO)NC(=O)[C@H](Cc1ccc(O)cc1)NC(=O)[C@H](CC(=O)O)NC(=O)[C@H](CO)NC(=O)[C@@H](NC(=O)[C@H](Cc1ccccc1)NC(=O)[C@@H](NC(=O)CNC(=O)[C@H](CCC(N)=O)NC(=O)C1(NC(=O)[C@@H](N)Cc2c[nH]cn2)CC1)[C@@H](C)O)[C@@H](C)O)C(=O)N[C@@H](C)C(=O)N[C@@H](C)C(=O)N[C@@H](Cc1c[nH]cn1)C(=O)N[C@@H](CC(=O)O)C(=O)N[C@@H](Cc1ccccc1)C(=O)N[C@H](C(=O)N[C@@H](CCC(=O)O)C(=O)N[C@@H](Cc1c[nH]c2ccccc12)C(=O)N[C@@H](CC(C)C)C(=O)N[C@@H](CC(C)C)C(=O)N[C@@H](CO)C(=O)N[C@@H](C)C(N)=O)C(C)C)C(=O)O
# B2: Compound 12: H-H-DAla-QGTFTSDYSKYLDE-K(Hexadecanoyl-isoGlu)-AAKDFIEWLESA-NH2 (peptide)
# peptide: HXQGTFTSDYSKYLDEKAAKDFIEWLESA
# modifications: position 2 is DAla (D-alanine); Lys17 side chain conjugated to hexadecanoyl-isoGlu; C-terminal amide (NH2)
# Legend:
# [1] = biological target: T2, human glucagon-like peptide 1 receptor (GLP-1R) (Homo sapiens, UniProt P43220); test: GLP-1 receptor efficacy assay (cAMP AlphaScreen, CHO cells); assay type: cell-based; settings: for Ratio GLP-1/Glucagon: EC50 [GLP-1R] / EC50 [Glucagon-R], human receptors in CHO-K1; for EC50: cAMP formation, CHO cells expressing human GLP-1-R, read-out: EC50 hGLP-1R CHO-K1
# T2 construct: expressed in transfected cells
# Description: The mammalian expression vectors encoding the Glucagon-R or the GLP-1-R were transfected into Chinese hamster ovary (CHO) cells by the Attractene method. Stably expressing clones were obtained by Zeocin selection (250 μg/mL) upon limited dilution of cells resistant to the selection pressure. […] One Glucagon-R expressing clone and one GLP-1-R expressing clone were chosen for compound profiling.
# CHO cells expressing the human Glucagon-R, or human GLP-1-R were seeded 24 hours prior to the assay at 30,000 cells per well in 96-well microtiter plates in culture in 100 μl growth medium. On the day of analysis, growth medium was removed and the cells were washed once with 200 μl of assay buffer (Krebs-Ringer-buffer—KRBH). The buffer was removed and the cells were incubated for 15 min at room temperature in 10 μl KRBH (KRBH+10 mM HEPES, 5 mM NaHCO3, 0.1% (V/V) BSA) with 0.1 mM IBMX in deionized water containing increasing concentrations of test peptides. The reaction was stopped by the addition of lysis buffer (0.1% w/v BSA, 5 mM HEPES, 0.3% v/v Tween-20). After cell lysis for 10 min at room temperature, lysates were transferred to 384-well plates and 10 μl of acceptor/donorbead mixture as contained in the AlphaScreen™ cAMP Functional Assay Kit was added. After one hour of incubation at room temperature in the dark, the cAMP content was determined applying the AlphaScreen™ cAMP Functional Assay Kit from Perkin-Elmer according to manufacturer instructions. […] The GLP-1/glucagon ratio is calculated as defined earlier.
# [2] = biological target: T1, endogenous GLP-1 receptor of a murine …; test: cell-based or functional assay
# [3] = biological target: human glucagon-like peptide 1 receptor (GLP-1R) (human, UniProt P43220 24-463); test: cell-based or functional assay
# [4] = biological target: human glucagon receptor (Glucagon-R) (human, UniProt P47871 26-477); test: cell-based or functional assay
# [5] = biological target: endogenous glucagon receptor of primary rat hepatocytes (rat, UniProt P30082 27-485); test: cell-based or functional assay
# Sequence of endogenous glucagon receptor of primary rat hepatocytes (P30082 27-485): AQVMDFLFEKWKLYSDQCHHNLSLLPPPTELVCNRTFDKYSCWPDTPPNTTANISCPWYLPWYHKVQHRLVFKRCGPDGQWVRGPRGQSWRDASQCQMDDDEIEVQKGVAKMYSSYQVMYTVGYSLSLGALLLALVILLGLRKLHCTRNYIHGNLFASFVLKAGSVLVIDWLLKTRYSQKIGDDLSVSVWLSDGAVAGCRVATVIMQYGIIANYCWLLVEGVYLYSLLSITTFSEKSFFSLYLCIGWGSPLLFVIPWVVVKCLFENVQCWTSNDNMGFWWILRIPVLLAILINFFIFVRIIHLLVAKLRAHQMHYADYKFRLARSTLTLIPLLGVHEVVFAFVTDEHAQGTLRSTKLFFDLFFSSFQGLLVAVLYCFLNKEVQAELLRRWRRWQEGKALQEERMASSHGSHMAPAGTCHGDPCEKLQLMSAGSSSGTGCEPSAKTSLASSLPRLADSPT
# T2 sequence (P43220 24-463): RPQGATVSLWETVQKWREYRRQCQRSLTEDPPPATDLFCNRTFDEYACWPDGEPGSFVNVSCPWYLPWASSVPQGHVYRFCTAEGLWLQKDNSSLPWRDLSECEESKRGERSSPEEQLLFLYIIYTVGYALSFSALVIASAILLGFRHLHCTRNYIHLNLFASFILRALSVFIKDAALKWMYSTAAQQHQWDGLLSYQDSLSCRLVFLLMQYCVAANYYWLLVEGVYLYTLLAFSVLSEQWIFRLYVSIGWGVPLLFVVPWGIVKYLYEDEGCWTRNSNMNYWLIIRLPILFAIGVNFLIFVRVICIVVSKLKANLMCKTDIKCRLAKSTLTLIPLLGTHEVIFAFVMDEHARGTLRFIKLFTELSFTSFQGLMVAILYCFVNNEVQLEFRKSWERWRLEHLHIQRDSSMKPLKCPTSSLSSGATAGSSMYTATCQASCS
# Sequence of human glucagon receptor (Glucagon-R) (P47871 26-477): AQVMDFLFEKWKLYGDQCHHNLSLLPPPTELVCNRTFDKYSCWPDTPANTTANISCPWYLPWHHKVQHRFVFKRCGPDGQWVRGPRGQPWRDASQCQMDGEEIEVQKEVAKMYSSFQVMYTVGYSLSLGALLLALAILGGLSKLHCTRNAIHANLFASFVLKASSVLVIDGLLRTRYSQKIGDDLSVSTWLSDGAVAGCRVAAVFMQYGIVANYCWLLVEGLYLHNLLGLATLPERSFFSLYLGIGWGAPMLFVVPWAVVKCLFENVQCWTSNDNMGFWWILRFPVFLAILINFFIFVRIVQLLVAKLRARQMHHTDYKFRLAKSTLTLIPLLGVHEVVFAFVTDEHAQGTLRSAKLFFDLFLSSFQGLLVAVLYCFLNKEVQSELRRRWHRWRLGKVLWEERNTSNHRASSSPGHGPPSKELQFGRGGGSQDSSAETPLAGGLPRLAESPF
Molecule,Ratio GLP-1/Glucagon [1],"EC50 hGLP-1R CHO-K1 [nM] (cAMP, AlphaScreen) [3]","EC50 hGCGR CHO-K1 [nM] (cAMP, AlphaScreen) [4]",also measured
CCCCCCCCCCCCCCCC(=O)N[C@@H](CCC(=O)NCCCC[C@H](NC(=O)[C@H](CO)NC(=O)[C@H](CC(=O)O)NC(=O)[C@H](CC(C)C)NC(=O)[C@H](Cc1ccc(O)cc1)NC(=O)[C@H](CCCCN)NC(=O)[C@H](CO)NC(=O)[C@H](Cc1ccc(O)cc1)NC(=O)[C@H](CC(=O)O)NC(=O)[C@H](CO)NC(=O)[C@@H](NC(=O)[C@H](Cc1ccccc1)NC(=O)[C@@H](NC(=O)CNC(=O)[C@H](Cc1c[nH]cn1)NC(=O)C1(NC(=O)[C@@H](N)Cc2c[nH]cn2)CC1)[C@@H](C)O)[C@@H](C)O)C(=O)N[C@@H](C)C(=O)N[C@@H](C)C(=O)N[C@@H](Cc1c[nH]cn1)C(=O)N[C@@H](CC(=O)O)C(=O)N[C@@H](Cc1ccccc1)C(=O)N[C@H](C(=O)N[C@@H](CCC(=O)O)C(=O)N[C@@H](Cc1c[nH]c2ccccc12)C(=O)N[C@@H](CC(C)C)C(=O)N[C@@H](CC(C)C)C(=O)N[C@@H](CO)C(=O)N[C@@H](C)C(N)=O)C(C)C)C(=O)O [Compound 8] (H-H[Ac3c]HGTFTSDYSKYLDSK([γGlu-Palmitoyl])AAHDFVEWLLSA-NH2),0.13,,,
CCCCCCCCCCCCCCCC(=O)N[C@@H](CCC(=O)NCCCC[C@H](NC(=O)[C@H](CCC(=O)O)NC(=O)[C@H](CC(=O)O)NC(=O)[C@H](CC(C)C)NC(=O)[C@H](Cc1ccc(O)cc1)NC(=O)[C@H](CCCCN)NC(=O)[C@H](CO)NC(=O)[C@H](Cc1ccc(O)cc1)NC(=O)[C@H](CC(=O)O)NC(=O)[C@H](CO)NC(=O)[C@@H](NC(=O)[C@H](Cc1ccccc1)NC(=O)[C@@H](NC(=O)CNC(=O)[C@H](CCC(N)=O)NC(=O)[C@H](C)NC(=O)[C@@H](N)Cc1c[nH]cn1)[C@@H](C)O)[C@@H](C)O)C(=O)N[C@@H](C)C(=O)N[C@@H](C)C(=O)N[C@@H](CCCCN)C(=O)N[C@@H](CC(=O)O)C(=O)N[C@@H](Cc1ccccc1)C(=O)N[C@H](C(=O)N[C@@H](CCC(=O)O)C(=O)N[C@@H](Cc1c[nH]c2ccccc12)C(=O)N[C@@H](CC(C)C)C(=O)N[C@@H](CCC(=O)O)C(=O)N[C@@H](CO)C(=O)N[C@@H](C)C(N)=O)[C@@H](C)CC)C(=O)O [Compound 11],,,,EC50 [1]: 0.14 nM
CCCCCCCCCCCCCCCC(=O)N[C@@H](CCC(=O)NCCCC[C@H](NC(=O)[C@H](CCC(=O)O)NC(=O)[C@H](CC(=O)O)NC(=O)[C@H](CC(C)C)NC(=O)[C@H](Cc1ccc(O)cc1)NC(=O)[C@H](CCCCN)NC(=O)[C@H](CO)NC(=O)[C@H](Cc1ccc(O)cc1)NC(=O)[C@H](CC(=O)O)NC(=O)[C@H](CO)NC(=O)[C@@H](NC(=O)[C@H](Cc1ccccc1)NC(=O)[C@@H](NC(=O)CNC(=O)[C@H](CCC(N)=O)NC(=O)[C@@H](C)NC(=O)[C@@H](N)Cc1c[nH]cn1)[C@@H](C)O)[C@@H](C)O)C(=O)N[C@@H](C)C(=O)N[C@@H](C)C(=O)N[C@@H](CCCCN)C(=O)N[C@@H](CC(=O)O)C(=O)N[C@@H](Cc1ccccc1)C(=O)N[C@H](C(=O)N[C@@H](CCC(=O)O)C(=O)N[C@@H](Cc1c[nH]c2ccccc12)C(=O)N[C@@H](CC(C)C)C(=O)N[C@@H](CCC(=O)O)C(=O)N[C@@H](CO)C(=O)N[C@@H](C)C(N)=O)[C@@H](C)CC)C(=O)O [Compound 12],,,,EC50 [1]: 0.14 nM
CCCCCCCCCCCCCCCC(=O)N[C@@H](CCC(=O)NCCCC[C@H](NC(=O)[C@H](CCC(=O)O)NC(=O)[C@H](CC(=O)O)NC(=O)[C@H](CC(C)C)NC(=O)[C@H](Cc1ccc(O)cc1)NC(=O)[C@H](CCCCN)NC(=O)[C@H](CO)NC(=O)[C@H](Cc1ccc(O)cc1)NC(=O)[C@H](CC(=O)O)NC(=O)[C@H](CO)NC(=O)[C@@H](NC(=O)[C@H](Cc1ccccc1)NC(=O)[C@@H](NC(=O)CNC(=O)[C@H](CCC(N)=O)NC(=O)[C@@H]1CCCN1C(=O)[C@@H](N)Cc1c[nH]cn1)[C@@H](C)O)[C@@H](C)O)C(=O)N[C@@H](C)C(=O)N[C@@H](C)C(=O)N[C@@H](CCCCN)C(=O)N[C@@H](CC(=O)O)C(=O)N[C@@H](Cc1ccccc1)C(=O)N[C@H](C(=O)N[C@@H](CCC(=O)O)C(=O)N[C@@H](Cc1c[nH]c2ccccc12)C(=O)N[C@@H](CC(C)C)C(=O)N[C@@H](CCC(=O)O)C(=O)N[C@@H](CO)C(=O)N[C@@H](C)C(N)=O)[C@@H](C)CC)C(=O)O [Compound 13],0.07,,,
CCCCCCCCCCCCCCCC(=O)N[C@@H](CCC(=O)NCCCC[C@H](NC(=O)[C@H](CCC(=O)O)NC(=O)[C@H](CC(=O)O)NC(=O)[C@H](CC(C)C)NC(=O)[C@H](Cc1ccc(O)cc1)NC(=O)[C@H](CCCCN)NC(=O)[C@H](CO)NC(=O)[C@H](Cc1ccc(O)cc1)NC(=O)[C@H](CC(=O)O)NC(=O)[C@H](CO)NC(=O)[C@@H](NC(=O)[C@H](Cc1ccccc1)NC(=O)[C@@H](NC(=O)CNC(=O)[C@H](CCC(N)=O)NC(=O)C1(NC(=O)[C@@H](N)Cc2c[nH]cn2)CCC1)[C@@H](C)O)[C@@H](C)O)C(=O)N[C@@H](C)C(=O)N[C@@H](C)C(=O)N[C@@H](CCCCN)C(=O)N[C@@H](CC(=O)O)C(=O)N[C@@H](Cc1ccccc1)C(=O)N[C@H](C(=O)N[C@@H](CCC(=O)O)C(=O)N[C@@H](Cc1c[nH]c2ccccc12)C(=O)N[C@@H](CC(C)C)C(=O)N[C@@H](CCC(=O)O)C(=O)N[C@@H](CO)C(=O)N[C@@H](C)C(N)=O)[C@@H](C)CC)C(=O)O [Compound 14],0.04,,,
H-HAQGTFTSDYSKYLDSK([γGlu-Palmitoyl])AAHDFVEWLLSA-NH2 [Compound 1: H-HAQGTFTSDYSKYLDS-K(Hexadecanoyl-isoGlu)-AAHDFVEWLLSA-NH2],,0.52,,EC50 [nM] (cAMP in murine insulinoma cell line) [2]: 0.12 nM
H-H[Ac4c]HGTFTSDYSKYLDEK([γGlu-Palmitoyl])AAKDFIEWLESA-NH2 [Compound 15: H-H-Ac4c-HGTFTSDYSKYLDE-K(Hexadecanoyl-isoGlu)-AAKDFIEWLESA-NH2],,,0.1,EC50 [nM] (inhibition of glycogen synthesis rate in primary rat hepatocytes) [5]: 0.05 nM
B1,,,0.62,EC50 [nM] (cAMP in murine insulinoma cell line) [2]: 0.27 nM; EC50 [nM] (inhibition of glycogen synthesis rate in primary rat hepatocytes) [5]: 3.27 nM
H-HAQGTFTSDYSKYLDEK([γGlu-Palmitoyl])AAKDFIEWLESA-NH2 [Compound 11: H-HAQGTFTSDYSKYLDE-K(Hexadecanoyl-isoGlu)-AAKDFIEWLESA-NH2],,0.14,0.69,
B2,,0.14,1.27,
